According to paper PMC11035591, “Structural insights into the transporting and catalyzing mechanism of DltB in LTA D-alanylation” (Nature Communications, 2024):
Each block holds one binder with its values, some of them ahead of it.

Columns and labels:
[1] = target: T1, Streptococcus thermophilus DltB (Streptococcus thermophilus, UniProt Q5M4V4 1-415); experiment: cryo-EM structure; DltB tetramer (10 mg/mL) incubated with purified DltC (1:1 ratio) for 30 min; 3.50 Å; details: both partners purified
T1 construct: the entire chain from Met1 to Lys415 was modelled in the cryo-EM maps ('intact DltB protein'); Homo-tetramer (dimer of dimers) by SEC, cross-linking and cryo-EM; purification also gave oligomer, dimer and monomer fractions; also called WT DltB; DltB tetramer; source: E. coli C41(DE3); purified (Triton X-100 solubilisation, Ni-NTA, Superdex 200 in 0.03% β-DDM); also unpurified in whole cells, on …
T1 sequence (looked up): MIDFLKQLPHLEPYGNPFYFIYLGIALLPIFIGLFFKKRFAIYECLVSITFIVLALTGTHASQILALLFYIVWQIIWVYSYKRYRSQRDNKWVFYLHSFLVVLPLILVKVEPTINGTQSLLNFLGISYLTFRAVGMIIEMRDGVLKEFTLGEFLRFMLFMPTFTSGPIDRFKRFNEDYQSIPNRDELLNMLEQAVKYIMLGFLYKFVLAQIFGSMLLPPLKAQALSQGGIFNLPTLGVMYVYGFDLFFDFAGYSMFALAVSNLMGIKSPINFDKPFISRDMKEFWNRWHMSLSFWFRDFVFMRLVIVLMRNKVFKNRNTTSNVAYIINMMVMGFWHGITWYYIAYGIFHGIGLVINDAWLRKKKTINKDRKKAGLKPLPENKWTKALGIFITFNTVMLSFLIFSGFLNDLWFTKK

[2] = target: T2, Streptococcus thermophilus DltB (Streptococcus thermophilus), Q5M4V4; experiment: cryo-EM structure; apo DltB tetramer, about 10 mg/mL in β-DDM; 3.42 Å; details: remark: other sources report otherwise
T2 chain: T1 sequence (looked up)

[3] = target: T2, Streptococcus thermophilus DltB …; experiment: cryo-EM structure; DltB tetramer (10 mg/mL) incubated with purified DltC (1:1 ratio) for 30 min; 3.50 Å; details: remark: other sources report otherwise
[4] = target: T2, Streptococcus thermophilus DltB …; experiment: cryo-EM structure; DltB tetramer (10 mg/mL) incubated with the inhibitor m-AMSA (1:3 ratio) for 30 min; 3.23 Å; details: remark: other sources report otherwise
[5] = target: T2, Streptococcus thermophilus DltB …; experiment: SEC; membrane with overexpressed DltB (wild type or mutant) mildly solubilised with 0.25% β-DDM, Superdex 200; fractions analysed by western blot (anti-His); details: remark: other sources report otherwise

- binding result [1]: binds
B1: Streptococcus thermophilus DltC (natural protein)
chain: MDVKAEVIEIIDELFMEDVSDMMDEDLFDAGVLDSMGTVELIVELESRFDIRVPVSEFGRDDWNTANKIVEGVTELRNA
notes: DltC, D-alanyl carrier protein, Streptococcus thermophilus; Used without the 4'-phosphopantetheine (Ppant) modification on Ser35; Modified pET28a vector with a TEV cleavage site; also called DltC-ST; source: E. coli BL21(DE3), purified (Ni column, TEV cleavage, Resource Q)

- stoichiometry N [2]: 4
- stoichiometry N [3]: 4
- stoichiometry N [4]: 4
- stoichiometry N [5]: 4
B2: Streptococcus thermophilus DltB, Q5M4V4 1-415 (enzyme)
chain: T1 sequence (looked up)
